Test results as given in patent US20130209454A1.

Tests used:
Experiment in all cases: cell-based or functional assay
[1] = target: HIV-1 Env of strain CNE5 (HIV-1)
[2] = target: HIV-1 Env of strain 191955_A11 (HIV-1)
[3] = target: HIV-1 Env of strain BJOX025000.01.1 (HIV-1)
[4] = target: HIV-1 Env of strain 1012_11_TC21_3257 (HIV-1)
[5] = target: HIV-1 Env of strain 263-8 (HIV-1)
[6] = target: HIV-1 Env of strain 0260.v5.c36 (HIV-1)
[7] = target: HIV-1 Env of strain 6041.v3.c23 (HIV-1)
[8] = target: HIV-1 Env of strain 1394C9G1(Rev-) (HIV-1)
[9] = target: HIV-1 Env of strain 6952.v1.c20 (HIV-1)
[10] = target: HIV-1 Env of strain 235-47 (HIV-1)
[11] = target: HIV-1 Env of strain 191084 B7-19 (HIV-1)
[12] = target: Env of HIV-1 strain 231965.c01 (HIV-1)
[13] = target: Env of HIV-1 strain 6952.v1.c20 (HIV-1)
[14] = target: Env of HIV-1 strain RHPA4259.7 (HIV-1)
[15] = target: Env of HIV-1 strain P0402_c2_11 (HIV-1)
[16] = target: Env of HIV-1 strain Ce704809221_1B3 (HIV-1)
[17] = target: Env of HIV-1 strain QH0692.42 (HIV-1)
[18] = target: Env of HIV-1 strain ZM249M.PL1 (HIV-1)
[19] = target: Env of HIV-1 strain R2184.c04 (HIV-1)
[20] = target: Env of HIV-1 strain 235-47 (HIV-1)
[21] = target: Env of HIV-1 strain T257-31 (HIV-1)
[22] = target: Env of HIV-1 strain BJOX025000.01.1 (HIV-1)
[23] = target: Env of HIV-1 strain 6540.v4.c1 (HIV-1)
[24] = target: Env of HIV-1 strain Ce703010054_2A2 (HIV-1)
[25] = target: Env of HIV-1 strain 211-9 (HIV-1)
[26] = target: Env of HIV-1 strain BJOX010000.06.2 (HIV-1)
[27] = target: Env of HIV-1 strain SC422661.8 (HIV-1)
[28] = target: Env of HIV-1 strain T251-18 (HIV-1)
[29] = target: Env of HIV-1 strain WEAU_d15_410_787 (HIV-1)
[30] = target: Env of HIV-1 strain T250-4 (HIV-1)
[31] = target: Env of HIV-1 strain C1080.c03 (HIV-1)
[32] = target: Env of HIV-1 strain 1006_11_C3_1601 (HIV-1)
[33] = target: Env of HIV-1 strain 3301.v1.c24 (HIV-1)
[34] = target: Env of HIV-1 strain X1254_c3 (HIV-1)
[35] = target: Env of HIV-1 strain 1012_11_TC21_3257 (HIV-1)
[36] = target: Env of HIV-1 strain CAP45.2.00.G3 (HIV-1)
[37] = target: Env of HIV-1 strain CNE30 (HIV-1)
[38] = target: Env of HIV-1 strain ZM109F.PB4 (HIV-1)
[39] = target: Env of HIV-1 strain CNE17 (HIV-1)
[40] = target: Env of HIV-1 strain Q23.17 (HIV-1)
[41] = target: Env of HIV-1 strain 6545.v4.c1 (HIV-1)
[42] = target: Env of HIV-1 strain HIV-0013095-2.11 (HIV-1)
[43] = target: Env of HIV-1 strain ZM247v1(Rev-) (HIV-1)
[44] = target: Env of HIV-1 strain C3347.c11 (HIV-1)
[45] = target: Env of HIV-1 strain AC10.0.29 (HIV-1)
[46] = target: Env of HIV-1 strain 3103.v3.c10 (HIV-1)
[47] = target: Env of HIV-1 strain C4118.c09 (HIV-1)
[48] = target: Env of HIV-1 strain 6811.v7.c18 (HIV-1)
[49] = target: Env of HIV-1 strain BF1266.431a (HIV-1)
[50] = target: Env of HIV-1 strain WITO4160.33 (HIV-1)

B1: NIH45-46^G54W(HC), S28Y(LC) (antibody, V domains shown)
VH: QVRLSQSGGQMKKPGESMRLSCRASGYEFLNCPINWIRLAPGRRPEWMGWLKPRWGAVNYARKFQGRVTMTRDVYSDTAFLELRSLTSDDTAVYFCTRGKYCTARDYYNWDFEHWGRGAPVTVSS
VL: EIVLTQSPATLSLSPGETAIISCRTSQYGSLAWYQQRPGQAPRLVIYSGSTRAAGIPDRFSGSRWGADYNLSISNLESGDFGVYYCQQYEFFGQGTKVQVDI
Q: With B1 as the binder, how does the IC50, pseudovirus neutralization [1] read?
A: Its IC50, pseudovirus neutralization is 0.032 mg/L.

Q: And the IC50, pseudovirus neutralization [2]?
A: The IC50, pseudovirus neutralization was 0.013 mg/L.

Q: And the IC50, pseudovirus neutralization [3]?
A: The IC50, pseudovirus neutralization was 0.031 mg/L.

Q: And the IC50, pseudovirus neutralization [4]?
A: Its IC50, pseudovirus neutralization is 0.001 mg/L.

Q: What about the IC50, pseudovirus neutralization [5] of the same binder?
A: Its IC50, pseudovirus neutralization is 0.018 mg/L.

Q: And the IC50, pseudovirus neutralization [6]?
A: Its IC50, pseudovirus neutralization is 0.032 mg/L.

Q: And the IC50, pseudovirus neutralization [7]?
A: The IC50, pseudovirus neutralization was 0.001 mg/L.

Q: What about the IC50, pseudovirus neutralization [8] of the same binder?
A: Its IC50, pseudovirus neutralization is 0.012 mg/L.

Q: What about the IC50, pseudovirus neutralization [9] of the same binder?
A: Its IC50, pseudovirus neutralization is 0.007 mg/L.

Q: And the IC50, pseudovirus neutralization [10]?
A: Its IC50, pseudovirus neutralization is 0.001 mg/L.

Q: What about the IC50, pseudovirus neutralization [11] of the same binder?
A: Its IC50, pseudovirus neutralization is 0.001 mg/L.

B2: NIH45-46^G54W (antibody, V domains shown)
VH: QVRLSQSGGQMKKPGESMRLSCRASGYEFLNCPINWIRLAPGRRPEWMGWLKPRWGAVNYARKFQGRVTMTRDVYSDTAFLELRSLTSDDTAVYFCTRGKYCTARDYYNWDFEHWGRGAPVTVSS
VL: EIVLTQSPATLSLSPGETAIISCRTSQSGSLAWYQQRPGQAPRLVIYSGSTRAAGIPDRFSGSRWGADYNLSISNLESGDFGVYYCQQYEFFGQGTKVQVDI
Q: Which results are given for B2?
A: IC80 [12]: 0.035 mg/L; IC80 [13]: 0.01 mg/L; IC80 [14]: 0.007 mg/L; IC80 [15]: 0.023 mg/L; IC50, pseudovirus neutralization [1]: 0.009 mg/L; IC80 [16]: 0.21 mg/L; IC80 [17]: 1.12 mg/L; IC80 [18]: 0.007 mg/L; IC80 [19]: 0.036 mg/L; IC80 [20]: 0.017 mg/L; IC80 [21]: 0.45 mg/L; IC80 [22]: 0.135 mg/L; IC80 [23]: > 50 mg/L; IC50, pseudovirus neutralization [2]: 0.015 mg/L; IC80 [24]: 0.077 mg/L; IC80 [25]: > 50 mg/L; IC80 [26]: 4.5 mg/L; IC80 [27]: 0.07 mg/L; IC80 [28]: 0.92 mg/L; IC80 [29]: 0.003 mg/L; IC50, pseudovirus neutralization [3]: 0.014 mg/L; IC80 [30]: 44.9 mg/L; IC50, pseudovirus neutralization [4]: 0.001 mg/L; IC50, pseudovirus neutralization [5]: 0.001 mg/L; IC80 [31]: 0.91 mg/L; IC50, pseudovirus neutralization [6]: 0.117 mg/L; IC50, pseudovirus neutralization [7]: 0.001 mg/L; IC80 [32]: 0.008 mg/L; IC80 [33]: 0.004 mg/L; IC50, pseudovirus neutralization [8]: 0.001 mg/L; IC80 [34]: 0.018 mg/L; IC80 [35]: 0.003 mg/L; IC50, pseudovirus neutralization [9]: 0.001 mg/L; IC50, pseudovirus neutralization [10]: 0.001 mg/L; IC80 [36]: > 50 mg/L; IC80 [37]: 0.196 mg/L; IC80 [38]: 0.07 mg/L; IC50, pseudovirus neutralization [11]: 0.001 mg/L; IC80 [39]: 0.127 mg/L; IC80 [40]: 0.03 mg/L; IC80 [41]: > 50 mg/L; IC80 [42]: 0.027 mg/L; IC80 [43]: 2.6 mg/L; IC80 [44]: 0.028 mg/L; IC80 [45]: 0.63 mg/L; IC80 [46]: 0.56 mg/L; IC80 [47]: 0.087 mg/L; IC80 [48]: 0.033 mg/L; IC80 [49]: 0.001 mg/L; IC80 [50]: 0.04 mg/L

B3: NIH45-46^G54W(HC) S28Y(LC) (antibody, V domains shown)
VH: QVRLSQSGGQMKKPGESMRLSCRASGYEFLNCPINWIRLAPGRRPEWMGWLKPRWGAVNYARKFQGRVTMTRDVYSDTAFLELRSLTSDDTAVYFCTRGKYCTARDYYNWDFEHWGRGAPVTVSS
VL: EIVLTQSPATLSLSPGETAIISCRTSQYGSLAWYQQRPGQAPRLVIYSGSTRAAGIPDRFSGSRWGADYNLSISNLESGDFGVYYCQQYEFFGQGTKVQVDI
Q: What does the source list for B3?
A: IC80 [12]: 0.035 mg/L; IC80 [13]: 0.042 mg/L; IC80 [14]: 0.007 mg/L; IC80 [15]: 0.042 mg/L; IC80 [16]: 0.484 mg/L; IC80 [17]: 0.622 mg/L; IC80 [18]: 0.017 mg/L; IC80 [19]: 0.039 mg/L; IC80 [20]: 0.019 mg/L; IC80 [21]: 0.471 mg/L; IC80 [22]: 0.211 mg/L; IC80 [23]: > 50 mg/L; IC80 [24]: 0.051 mg/L; IC80 [25]: 0.898 mg/L; IC80 [26]: 5.04 mg/L; IC80 [27]: 0.09 mg/L; IC80 [28]: 1.43 mg/L; IC80 [29]: 0.027 mg/L; IC80 [30]: 38.9 mg/L; IC80 [31]: 0.589 mg/L; IC80 [32]: 0.037 mg/L; IC80 [33]: 0.006 mg/L; IC80 [34]: 0.03 mg/L; IC80 [35]: 0.008 mg/L; IC80 [36]: 0.089 mg/L; IC80 [37]: 0.239 mg/L; IC80 [38]: 0.086 mg/L; IC80 [39]: 0.254 mg/L; IC80 [40]: 0.05 mg/L; IC80 [41]: > 50 mg/L; IC80 [42]: 0.017 mg/L; IC80 [43]: 0.034 mg/L; IC80 [44]: 0.034 mg/L; IC80 [45]: 0.554 mg/L; IC80 [46]: 0.594 mg/L; IC80 [47]: 0.058 mg/L; IC80 [48]: 0.11 mg/L; IC80 [49]: 0.013 mg/L; IC80 [50]: 0.073 mg/L
